What was measured:
[1] = tested on: polyclonal T cell lines derived from small intestinal biopsies of Celiac Sprue patients; test: T cell assays, 14 polyclonal T cell lines taken together; type: cell-based, human; conditions: PEP in combination with gastric and pancreatic enzymes and brush border membrane enzymes; in most cases
Description: Gluten treatment with gastric and pancreatic enzymes—Wheat gluten flour (3.0 g) was added to 100 ml of water with addition of HCl to achieve a stable suspension at pH 2.0. Pepsin (Pepsin NF powder, 1:10000, 60 mg) was mixed in to the gluten suspension and the gluten-pepsin mixture was shaken constantly at 37° C. for 2 h. After the pepsin treatment had been completed, 350 mg of Na2HPO4 were added and the pH adjusted to 7.9 by addition of 0.1 M NaOH. Trypsin/Chymotrypsin (38 mg) were added and the mixture was shaken again at 37° C. for 2 h and then heated to >95° C. for 10 min. After cooling to room temperature, 74 μL of the mixture was treated with Elastase (20 μL, 1 mg/ml) and the mixture was diluted to 1.7 mg/ml using PBS buffer, pH=7.5. The mixture was maintained at 37° C. After 2 h the digested gluten suspension was heated to 95° C. for 10 minutes and cooled to room temperature. After this, 20 μL of Carboxypeptidase A were added and incubated for 2 h at 37° C., and subsequently heat deactivated. […]
T cell assays—The generation of polyclonal gluten-specific T cell lines derived from ex vivo gluten challenged small intestinal biopsy specimens of adult Celiac Sprue patients have been described elsewhere. […] The proliferation in the wells was evaluated by ^3H thymidine incorporation from 48-72 hours after the addition of the T cells.

TCC 387 E9 = test: T cell clone assay, α-I specific clone; type: cell-based, human; conditions: clone 387E9; FIGS. 6A and 6B; after 60 min PEP treatment
Description: (§1) Prolyl endopeptidase (PEP) and Brush Border Membrane (BBM) treatment—Recombinant PEP (Sp. Act ˜40 U/mg) was added at a ratio of 200 mU/mg of the PTC-digested gluten substrate, and incubated at 37° C. for 15 min to 1 h and then heat de-activated, depending on the sample. Subsequently BBM (65 mU (DPP IV activity)/mg substrate) was added and the mixture was incubated for 1 h and heat de-activated. Control samples contained PEP and BBM buffer solutions without the enzymes.
(§2) T cell assays—The generation of polyclonal gluten-specific T cell lines derived from ex vivo gluten challenged small intestinal biopsy specimens of adult Celiac Sprue patients have been described elsewhere. For this study 14 different intestinal T cell lines derived from 13 DQ2+celiac patients were selected based on two basic criteria; effective recognition of TG2-treated digests of gluten and significant responses to at least two different gluten epitopes (Table 2). The generation of intestinal T cell clones and the epitope specificity of these clones, except TCC 387.3, has been described elsewhere (10). The TCC 387.3 recognizes a TG2-dependent epitope, defined as γ-VI that is contained within residues 62-72 (PQQPFPQQPQQ) of recombinant γ-5 gliadin. […] The proliferation in the wells was evaluated by ^3H thymidine incorporation from 48-72 hours after the addition of the T cells.

T cell clone 430.1.135 = test: T cell clone assay, α-II specific clone; type: cell-based, human; conditions: FIGS. 6A and 6B
Description: as §1, §2

TCC 370 E3.19 = test: T cell clone assay, α-III specific clone; type: cell-based, human; conditions: clone 370E3.19; FIGS. 6A and 6B
Description: as §1, §2

TCC 387.3 = test: T cell clone assay, γ-VI specific clone; type: cell-based, human; conditions: FIG. 6B
Description: as §1, §2

PEP activity assay = type: biochemical; conditions: recombinant PEP; pH 7.5, 37° C.
Description: Carboxypeptidase A: 995 μL 1.0 mM Hippuryl-L-Phe in 25 mM Tris and 500 mM NaCl, pH 7.5 was mixed with 5 μL Carboxypeptidase A (0.2 mg/ml). Absorption at 254 nm was recorded for 2′, every 10″. One unit hydrolyzes 1 μmol of Hippuryl-L-Phe per min at pH 7.5 and 25° C. Extinction coefficient 0.36 cm^2/μmol at 254 nm. PEP: To 10 μL Z-Gly-Pro-p-Nitroanilide 16.8 mg/ml in dioxane were added 70 μL dioxane, 120 μL water and 800 μL PBS buffer. This substrate solution was incubated at 37° C. for 10′; then 0.2-2 μL PEP were added and the absorption at 410 nm was recorded for 2′, every 10″. One unit hydrolyzes 1 μmol of Z-Gly-Pro-p-Nitroanilide per min at pH 7.5 and 37° C. Extinction coefficient 8.8 cm^2/μmol at 410 nm.

B1: PEP: Recombinant prolyl endopeptidase, Flavobacterium meningosepticum enzyme (protein, UniProt P27028 21-705, looked up)
Prolyl endopeptidase: QNSNVLKYPETKKVSHTDTYFGTQVSDPYRWLEDDRAEDTKAWVQQEVKFTQDYLAQIPFRDQLKKQLMDIWNYEKISAPFKKGKYTYFSKNDGLQAQSVLYRKDAAGKTEVFLDPNKFSEKGTTSLASVSFNKKGTLVAYSISEGGSDWNKIIILDAETKKQLDETLLDVKFSGISWLGDEGFFYSSYDKPKEGSVLSGMTDKHKVYFHKLGTKQSQDELIIGGDKFPRRYIGAYVTDDQRYLVVSAANATNGNELYIKDLKNKTDFIPIITGFDSNVNVADTDGDTLYLFTDKDAPNKRLVKTTIQNPKAETWKDVIAETSEPLEINTGGGYFFATYMKDAIDQVKQYDKNGKLVRAIKLPGSGNASGFGGEKTEKDLYYSFTNYITPPTIFKYNVTTGNSEVYQKPKVKFNPENYVSEQVFYTSSDGTKIPMMISYKKGLKKDGKNPTILYSYGGFNISLQPAFSVVNAIWMENGGIYAVPNIRGGGEYGKKWHDAGTKMQKKNVFNDFIAAGEYLQKNGYTSKEYMALSGRSNGGLLVGATMTMRPDLAKVAFPGVGVLDMLRYNKFTAGAGWAYDYGTAEDSKEMFEYLKSYSPVHNVKAGTCYPSTMVITSDHDDRVVPAHSFKFGSELQAKQSCKNPILIRIETNAGHGAGRSTEQVVAENADLLSFALYEMGIKSLK
immune response of patient derived intestinal T cells, relative to the response induced by positive controls [1]: less than 2%
T cell clone response to treated gluten: destruction of the α-I epitope (TCC 387 E9): retains some activity
T cell clone response to treated gluten: destruction of the α-II epitope (T cell clone 430.1.135): almost completely destroyed at the earliest time point
T cell clone response to treated gluten: destruction of the α-III epitope (TCC 370 E3.19): almost completely destroyed at the earliest time point
T cell clone response to treated gluten: destruction of the γ-VI epitope (TCC 387.3): persist for longer durations
specific activity (Sp. Act) (PEP activity assay): ~40 U/mg
